In patent publication US20180118808A1 (CALIFORNIA INSTITUTE FOR BIOMEDICAL RESEARCH, published 2018):

B1: Fmc63 HCCT K4 switch (Fab, V domains shown)
VH: EVKLQESGPGLVAPSQSLSVTCTVSGVSLPDYGVSWIRQPPRKGLEWLGVIWGSETTYYNSALKSRLTIIKDNSKSQVFLKMNSLQTDDTAIYYCAKHYYYGGSYAMDYWGQGTSVTVSS
VL: DIQMTQTTSSLSASLGDRVTISCRASQDISKYLNWYQQKPDGTVKLLIYHTSRLHSGVPSRFSGSGSGTDYSLTISNLEQEDIATYFCQQGNTLPYTFGGGTKLEIKR
B2: Fmc63 HCCT E4 switch (Fab, V domains shown)
VH: EVKLQESGPGLVAPSQSLSVTCTVSGVSLPDYGVSWIRQPPRKGLEWLGVIWGSETTYYNSALKSRLTIIKDNSKSQVFLKMNSLQTDDTAIYYCAKHYYYGGSYAMDYWGQGTSVTVSS
VL: DIQMTQTTSSLSASLGDRVTISCRASQDISKYLNWYQQKPDGTVKLLIYHTSRLHSGVPSRFSGSGSGTDYSLTISNLEQEDIATYFCQQGNTLPYTFGGGTKLEIKR

Columns and labels:
E4 Chimeric Receptor = biological target: T1, E4 Chimeric Receptor; test: cell-based or functional assay
T1 chain: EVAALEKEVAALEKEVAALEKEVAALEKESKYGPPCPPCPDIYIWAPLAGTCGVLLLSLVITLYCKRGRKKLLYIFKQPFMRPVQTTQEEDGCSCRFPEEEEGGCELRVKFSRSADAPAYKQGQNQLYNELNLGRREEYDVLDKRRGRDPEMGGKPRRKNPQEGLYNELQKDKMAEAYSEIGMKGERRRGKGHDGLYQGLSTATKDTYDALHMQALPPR

K4 Chimeric Receptor = biological target: T2, K4 Chimeric Receptor; test: cell-based or functional assay
T2 chain: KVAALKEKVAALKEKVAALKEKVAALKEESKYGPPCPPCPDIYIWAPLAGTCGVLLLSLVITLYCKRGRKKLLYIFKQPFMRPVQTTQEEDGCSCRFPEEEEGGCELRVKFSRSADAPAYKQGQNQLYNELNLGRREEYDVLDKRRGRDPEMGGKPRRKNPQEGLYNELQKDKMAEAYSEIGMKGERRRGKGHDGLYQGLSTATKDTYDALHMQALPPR

| Binder | EC50 (nM) of switch in cytotoxicity assay (LDH release), E4 CAR-T cells against CD19-positive Raji luc cells (E4 Chimeric Receptor) | EC50 (nM) of switch in cytotoxicity assay (LDH release), K4 CAR-T cells against CD19-positive Raji luc cells (K4 Chimeric Receptor) |
| --- | --- | --- |
| B1 | 0.00432 nM |  |
| B2 |  | 0.0507 nM |
